Laboratory results: US20090270312A1, “HIV-I GP41 FUSION PEPTIDES FOR IMMUNOMODULALTION” (priority 2005, published 2009)

Molecular target: TCR on the membrane of A2b T cells (rat)
Experiment: acceptor-photobleaching FRET; distance is between Rho on the peptide and FITC on the anti-TCR antibody

## AVGIGALFLGFLGAAGSTMGARSMTLTVQARQL (modifications not checked) [FP (full length) conjugated to Rhodamine]
  donor-acceptor distance inferred from FRET: < 50 Å
